Assay results published in patent publication US20180272008A1.
Ends that are not written are not given here.

Target: IgE of patient serum 3 (human)
Experiment: ELISA: serum IgE captured on an anti-human IgE coated plate, epitope 2 peptide (FITC-tagged) titrated, fluorescence (RFU)

EC50 (read off the curve): 10 µM
Binder: ERDPYSPSQDPYSPS (also: FITC tag, site not given here) [FITC-tagged epitope 2 peptide of Ara h 2]
